In paper PMC10767033 (Scientific Reports, 2024):

Target: T1, galectin-3 (Homo sapiens (assumed; ), UniProt P17931, biotin (biotinylated galectin-3))
T1 construct: galectin-3
Assay: ELISA; biotinylated galectin-3 (10 µg/mL) captured on NeutrAvidin-coated wells blocked with 3% skim milk; VHH at 800, 400 and 200 nM in solution, 30 min; detected with HRP anti-FLAG antibody; absorbance at 450 nm
Settings: both partners purified

T1 sequence (P17931 whole entry): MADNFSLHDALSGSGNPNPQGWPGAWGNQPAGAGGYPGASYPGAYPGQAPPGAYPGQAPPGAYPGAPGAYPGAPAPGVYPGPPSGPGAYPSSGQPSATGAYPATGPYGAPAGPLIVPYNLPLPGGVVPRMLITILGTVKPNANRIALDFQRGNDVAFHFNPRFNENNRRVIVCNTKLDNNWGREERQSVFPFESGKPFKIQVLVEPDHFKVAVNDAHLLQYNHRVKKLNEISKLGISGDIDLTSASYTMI

B1: wild-type VHH (3DWT) (VHH)
VHH: QVQLVESGGGSVQAGGSLRLSCTASGGSEYSYSTFSLGWFRQAPGQEREAVAAIASMGGLTYYADSVKGRFTISRDNAKNTVTLQMNNLKPEDTAIYYCAAVRGYFMRLPSSHNFRYWGQGTQVTVSS
notes: framework 1 of the VHH of PDB 3DWT; CDR1 (13 aa) of the wild type; framework 2 of the VHH of PDB 3DWT; CDR2 (10 aa) of the wild type; framework 3 of the VHH of PDB 3DWT; CDR3 (16 aa) of the wild type; framework 4 of the VHH of PDB 3DWT; also called wild-type 3DWT; source: E. coli BL21(DE3), purified (IMAC, SEC)
B1: no binding (tested: 800 nM, 400 nM, and 200 nM of VHHs).
